These results are taken from the supplement of paper PMC9732359.

± gives the uncertainty stated by the source.

The data set is described as follows: protein stability index of a GFP-peptide fusion (yeast GPS) (PSI 1-4); higher = more stable; sorted into four equal gates, so the index is relative within each strain. The gist of the method:
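Tiled yeast protein peptides of 17 residues were each joined downstream of GFP, on plasmids that also express Cherry. The pooled library was maintained in yeast, and mid-log cultures in leucine-free medium were sorted into four equal gates on the GFP/Cherry ratio. Plasmids from every gate were amplified by PCR and sequenced on Illumina, with barcodes linking reads to strains. The protein stability index of a peptide is its gate-number-weighted read frequency summed over the gates.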

In the case of EFDRRILKKSLMTSHTK [RTT102], the protein stability index by setting is: (doa10∆) 2.94 ± 0.17; (pdr5∆) 2.98 ± 0.092; (san1∆) 2.4 ± 0.15; (ubr1∆) 3.29 ± 0.093.

In turn, TGSIRHRLKLCKSLISE [CSE2] displayed a protein stability index (doa10∆) of 3.49 ± 0.29.

Regarding KMWFDVQLRYGDYDSHD [PRP8], the protein stability index (doa10∆) amounted to 1.78 ± 0.12, the protein stability index (pdr5∆) came to 2.06 ± 0.15 and the protein stability index (ubr1∆) stood at 3.06 ± 0.2.

In the case of AQWERSKLSQEFLYPHL [SNF12], the protein stability index by setting is: (doa10∆) 3.1 ± 0.088; (pdr5∆) 3 ± 0.084; (san1∆) 2.83 ± 0.071; (ubr1∆) 3.08 ± 0.062.

Consider QLQQQPQMQCALQNLSQ [YGL172W/NUP49], for which the protein stability index runs as follows: (doa10∆) 2.19 ± 0.12; (pdr5∆) 2.06 ± 0.09; (san1∆) 2.42 ± 0.11; (ubr1∆) 2.18 ± 0.077.

As to SSLLYTYDENDDFFKEL [ESC2], the protein stability index amounted to 2.52 ± 0.13 (doa10∆), 2.8 ± 0.17 (pdr5∆), 2.62 ± 0.15 (san1∆) and 2.87 ± 0.094 (ubr1∆).

CSNNKNSIKNVPPILII [SSN2]: the protein stability index stood at 2.39 ± 0.16 (doa10∆), 2.28 ± 0.098 (pdr5∆), 2.52 ± 0.17 (san1∆) and 1.5 ± 0.085 (ubr1∆).

As to EGQADIDMESDVEDDDK [POP7], the protein stability index by setting is: (doa10∆) 3.37 ± 0.095; (pdr5∆) 3.18 ± 0.11; (san1∆) 3.3 ± 0.07; (ubr1∆) 3.27 ± 0.042.

TKHLMPQDLTFNAGSNP [RPB7]: the protein stability index is 3.62 ± 0.2 (pdr5∆), 3.22 ± 0.26 (san1∆) and 2.79 ± 0.24 (ubr1∆).

For YEDSGSTYKHDRGIANI [SRB4], the protein stability index worked out at 3.29 ± 0.13 (doa10∆), 3.29 ± 0.14 (pdr5∆), 3.25 ± 0.097 (san1∆) and 3.36 ± 0.096 (ubr1∆).

Take RNTMMIQCQIDKLYIHF [RGR1]: the protein stability index was 1.98 ± 0.051 (doa10∆), 2.15 ± 0.061 (pdr5∆), 2.08 ± 0.069 (san1∆) and 2.19 ± 0.041 (ubr1∆).

As to ISPKGGRRISENGQRDL [RPS19A], the protein stability index was 2.81 ± 0.2 (pdr5∆), 3.19 ± 0.13 (san1∆) and 2.86 ± 0.11 (ubr1∆).

As for SSNPNSSLHSPTSDEPV [SRB4], the protein stability index reads like this: (doa10∆) 3.09 ± 0.13; (pdr5∆) 2.99 ± 0.079; (san1∆) 2.99 ± 0.063; (ubr1∆) 3.15 ± 0.058.

In the case of ALIFIFFAYFIGWCKED [YJL039C/NUP192], the protein stability index by setting is: (doa10∆) 1.84 ± 0.088; (pdr5∆) 1.54 ± 0.062; (san1∆) 2.03 ± 0.093; (ubr1∆) 1.88 ± 0.062.

With QFLYEKHYKNIPRNSPL [RPC82], the protein stability index runs as follows: (doa10∆) 1.92 ± 0.068; (pdr5∆) 1.9 ± 0.056; (san1∆) 1.68 ± 0.066; (ubr1∆) 2.08 ± 0.035.

With SRPEYSCTFWSDKESNA [YJL039C/NUP192], the protein stability index runs as follows: (doa10∆) 2.08 ± 0.063; (pdr5∆) 2.5 ± 0.061; (san1∆) 2.51 ± 0.071; (ubr1∆) 2.57 ± 0.072.

On to ESNIKMTLEDNNVTSNP [SSN2], for which the protein stability index by setting is: (doa10∆) 2.91 ± 0.092; (pdr5∆) 3.25 ± 0.11; (san1∆) 2.68 ± 0.086; (ubr1∆) 2.95 ± 0.055.

For the sequence RENGKGGQIAHILFQNN [ROX3], the protein stability index worked out at 1.88 ± 0.062 (doa10∆), 2.32 ± 0.06 (pdr5∆), 2.75 ± 0.061 (san1∆) and 2.48 ± 0.12 (ubr1∆).

For the sequence EQFKMVSMITDHNALPQ [POP1], the protein stability index stood at 3.04 ± 0.18 (doa10∆), 3.05 ± 0.11 (pdr5∆), 2.28 ± 0.27 (san1∆) and 2.85 ± 0.13 (ubr1∆).

In the case of DLALKMGVPIYGIVAMA [FAS2], the protein stability index stood at 1.85 ± 0.27 (doa10∆), 1.17 ± 0.093 (pdr5∆), 1.36 ± 0.28 (san1∆) and 1.18 ± 0.078 (ubr1∆).

As for DSSVEDSTDNENSGKEM [LIN1], the protein stability index is, setting by setting: (doa10∆) 3.04 ± 0.041; (pdr5∆) 3.24 ± 0.069; (san1∆) 3.41 ± 0.081; (ubr1∆) 2.99 ± 0.031.

Turning to LHVLPTLNSRALSGLYY [SNM1], the protein stability index worked out at 2.45 ± 0.052 (doa10∆), 2.45 ± 0.05 (pdr5∆), 2.12 ± 0.065 (san1∆) and 2.31 ± 0.042 (ubr1∆).

As to SEINEILARNDEEMAVL [SNF2], the protein stability index runs as follows: (doa10∆) 2.88 ± 0.18; (pdr5∆) 2.64 ± 0.21; (san1∆) 3 ± 0.17; (ubr1∆) 3.16 ± 0.099.

On to ISYKKGAASNRTKFVRS [RPL36A], for which the protein stability index is, setting by setting: (doa10∆) 3.06 ± 0.1; (pdr5∆) 3.2 ± 0.1; (san1∆) 3.13 ± 0.11; (ubr1∆) 3.26 ± 0.22.

For the sequence ERAAQKLRLDQLVIQQG [ISW2], the protein stability index reads like this: (doa10∆) 2.49 ± 0.11; (pdr5∆) 2.52 ± 0.094; (san1∆) 2.74 ± 0.082; (ubr1∆) 2.42 ± 0.069.

As to LLTKNVSCYRPRRDGER [RPS6A], the protein stability index reads like this: (doa10∆) 1.24 ± 0.22; (pdr5∆) 2.8 ± 0.12; (san1∆) 3.19 ± 0.085; (ubr1∆) 3.4 ± 0.096.
